Experimental findings from article PMC1635294 are described below.

Data set [1] deals with T1, SLBP (HBP), His-tagged (human, UniProt Q14493 1-270). Kind of data set: competition.
Data set [2] has as its target T1, SLBP (HBP), His-tagged. Kind of data set: competition. The source holds these as a separate data set.

Where two headings read alike, the source gives them in different places.

Regarding GGAGCUCAACAAAAGGCCCUUUUCAGGGCCACCC (structured_RNA) [wild-type stem-loop competitor], the binding result with SLBP (HBP), His-tagged [1] is on record as “binds”.

On to GGAGCUCAACAAAACCGGAAAGCCUUCCGGACCC (structured_RNA) [mutated stem-loop competitor (*)], for which the binding result with SLBP (HBP), His-tagged [2] is given as “no binding”.
